# Data as given in patent US8840891 (RSR, dated 2014).
# Where two headings read alike, the source gives them in different places.
# B1: 5C9 IgG (human monoclonal autoantibody to the TSHR) (antibody, from another filing, V domains shown)
# VH: EVQLVESGGGLIQPGGSLRLSCAASGFTVSSNYMSWVRQAPGKGLEWVSVTYSGGSTSYADSVKGRFTISRDNSKNTLYLQMNSLRAEDTAVYYCARGGRYCSSISCYARSGCDYWGQGTLVTVSS
# VL: AIQMTQSPSSLSASVGDRVTITCRASQSISNYLNWYQQKPGKAPKLLIYAASSLQSGVPSRFSGSGSGTDFTLTISSLQPEDFATYYCQQSYSSPSTTFGQGTKLEIK
# Assays:
# [1] = molecular target: TSHR coated onto tubes (human) (UniProt P16473); assay: TSHR coated tubes, competitor 125I-5C9 IgG
# [2] = molecular target: TSHR with Arg80 mutated to Aspartic acid (human) (UniProt P16473); assay: cell-based or functional assay
# [3] = molecular target: wild type human TSHR (human) (UniProt P16473); assay: cell-based or functional assay
# [4] = molecular target: TSHR with Asp151 mutated to Arginine (human) (UniProt P16473); assay: cell-based or functional assay
# [5] = molecular target: TSHR coated onto tubes (TSHR coated tubes) (human) (UniProt P16473); assay: TSHR coated tubes, in the presence of HBD pool (Table 5)
# [6] = molecular target: TSHR coated onto tubes (TSHR coated tubes) (human) (UniProt P16473); assay: Scatchard analysis, 125I-5C9 IgG and unlabelled 5C9 IgG in TSHR coated tubes
# [7] = molecular target: wild type human TSHR (thyrotropin receptor) expressed on CHO cells (human) (UniProt P16473); assay: cell-based or functional assay
# [8] = molecular target: TSHR with Glu251 mutated to Alanine expressed on CHO cells (human) (UniProt P16473); assay: cell-based or functional assay
# [9] = molecular target: wild type human TSHR (thyrotropin receptor) expressed on CHO cells (human) (UniProt P16473); assay: cell-based or functional assay; remark: listed apart in the source
# [10] = molecular target: TSHR with Phe130 mutated to Alanine expressed on CHO cells (human) (UniProt P16473); assay: cell-based or functional assay
# [11] = molecular target: TSHR with Arg274 mutated to Alanine expressed on CHO cells (human) (UniProt P16473); assay: cell-based or functional assay
# [12] = molecular target: wild type human TSHR (thyrotropin receptor) expressed on CHO cells (human) (UniProt P16473); assay: cell-based or functional assay; remark: listed apart in the source
# [13] = molecular target: TSHR with Lys250 mutated to Alanine expressed on CHO cells (human) (UniProt P16473); assay: cell-based or functional assay
# [14] = molecular target: wild type human TSHR (thyrotropin receptor) expressed on CHO cells (human) (UniProt P16473); assay: cell-based or functional assay; remark: listed apart in the source
# [15] = molecular target: TSHR with Lys209 mutated to Alanine expressed on CHO cells (human) (UniProt P16473); assay: cell-based or functional assay
# [16] = molecular target: TSHR coated onto tubes (TSHR coated tubes) (human) (UniProt P16473); assay: TSHR coated tubes, in the presence of HBD pool (Tables 4a, 4b)
# [17] = molecular target: TSHR coated on ELISA plate wells (RSR Ltd) (human) (UniProt P16473); assay: ELISA on TSHR-coated wells, 5C9 IgG-biotin binding with HBD pool (no competitor)
molecule,measurement,setting,value
5C9 IgG (antibody),% inhib of 125I-5C9 IgG binding at 0.01 µg/mL,[1],0%
same,% inhib of 125I-5C9 IgG binding at 0.1 µg/mL,[1],10%
same,% inhib of 125I-5C9 IgG binding at 1 µg/mL,[1],27%
same,% inhib of 125I-5C9 IgG binding at 10 µg/mL,[1],42%
same,% inhib of 125I-5C9 IgG binding at 100 µg/mL,[1],65.5%
same,Mutated/wild type (%); 5C9 0.01 µg/mL + TSH,[2],161%
same,Mutated/wild type (%); 5C9 0.1 µg/mL + TSH,[2],70%
same,Mutated/wild type (%); 5C9 1.0 µg/mL + TSH,[2],73%
same,Mutated/wild type (%); 5C9 10 µg/mL + TSH,[2],66%
same,Mutated/wild type (%); 5C9 100 µg/mL + TSH,[2],79%
same,Mutated/wild type (%); 5C9 100 µg/mL only,[2],174%
same,cyclic AMP; 5C9 0.01 µg/mL + TSH (fmol/cell well),[2],21000
same,cyclic AMP; 5C9 0.1 µg/mL + TSH (fmol/cell well),[2],4420
same,cyclic AMP; 5C9 1.0 µg/mL + TSH (fmol/cell well),[2],1910
same,cyclic AMP; 5C9 10 µg/mL + TSH (fmol/cell well),[2],1250
same,cyclic AMP; 5C9 100 µg/mL + TSH (fmol/cell well),[2],1270
same,cyclic AMP; 5C9 100 µg/mL only (fmol/cell well),[2],523
same,cyclic AMP; 5C9 0.01 µg/mL + TSH (fmol/cell well),[3],13100
same,cyclic AMP; 5C9 0.1 µg/mL + TSH (fmol/cell well),[3],6330
same,cyclic AMP; 5C9 1.0 µg/mL + TSH (fmol/cell well),[3],2640
same,cyclic AMP; 5C9 10 µg/mL + TSH (fmol/cell well),[3],1910
same,cyclic AMP; 5C9 100 µg/mL + TSH (fmol/cell well),[3],1610
same,cyclic AMP; 5C9 100 µg/mL only (fmol/cell well),[3],300
same,Mutated/wild type (%); 5C9 0.01 µg/mL + TSH,[4],148%
same,Mutated/wild type (%); 5C9 0.1 µg/mL + TSH,[4],158%
same,Mutated/wild type (%); 5C9 1.0 µg/mL + TSH,[4],94%
same,Mutated/wild type (%); 5C9 10 µg/mL + TSH,[4],132%
same,Mutated/wild type (%); 5C9 100 µg/mL + TSH,[4],148%
same,Mutated/wild type (%); 5C9 100 µg/mL only,[4],157%
same,cyclic AMP; 5C9 0.01 µg/mL + TSH (fmol/cell well),[4],18300
same,cyclic AMP; 5C9 0.1 µg/mL + TSH (fmol/cell well),[4],10600
same,cyclic AMP; 5C9 1.0 µg/mL + TSH (fmol/cell well),[4],2590
same,cyclic AMP; 5C9 10 µg/mL + TSH (fmol/cell well),[4],1610
same,cyclic AMP; 5C9 100 µg/mL + TSH (fmol/cell well),[4],2330
same,cyclic AMP; 5C9 100 µg/mL only (fmol/cell well),[4],409
B1,% of labelled protein bound,[5],13%
same,Ka,[6],4e+10 M⁻¹
same,Cyclic AMP produced; 5C9 0.01 µg/mL + TSH (fmol/cell well),[7],21200
same,Cyclic AMP produced; 5C9 0.1 µg/mL + TSH (fmol/cell well),[7],8640
same,Cyclic AMP produced; 5C9 1.0 µg/mL + TSH (fmol/cell well),[7],915
same,Cyclic AMP produced; 5C9 10 µg/mL + TSH (fmol/cell well),[7],752
same,Cyclic AMP produced; 5C9 100 µg/mL + TSH (fmol/cell well),[7],496
same,Cyclic AMP produced; 5C9 100 µg/mL only (fmol/cell well),[7],460
same,Cyclic AMP produced; 5C9 0.01 µg/mL + TSH (fmol/cell well),[8],22000
same,Cyclic AMP produced; 5C9 0.1 µg/mL + TSH (fmol/cell well),[8],15500
same,Cyclic AMP produced; 5C9 1.0 µg/mL + TSH (fmol/cell well),[8],5240
same,Cyclic AMP produced; 5C9 10 µg/mL + TSH (fmol/cell well),[8],1880
same,Cyclic AMP produced; 5C9 100 µg/mL + TSH (fmol/cell well),[8],1170
same,Cyclic AMP produced; 5C9 100 µg/mL only (fmol/cell well),[8],406
same,Mutated/wild type (%); 5C9 0.01 µg/mL + TSH,[8],104%
same,Mutated/wild type (%); 5C9 0.1 µg/mL + TSH,[8],180%
same,Mutated/wild type (%); 5C9 1.0 µg/mL + TSH,[8],573%
same,Mutated/wild type (%); 5C9 10 µg/mL + TSH,[8],250%
same,Mutated/wild type (%); 5C9 100 µg/mL + TSH,[8],236%
same,Mutated/wild type (%); 5C9 100 µg/mL only,[8],88%
same,Cyclic AMP produced; 5C9 0.01 µg/mL + TSH (fmol/cell well),[9],15300
same,Cyclic AMP produced; 5C9 0.1 µg/mL + TSH (fmol/cell well),[9],2710
same,Cyclic AMP produced; 5C9 1.0 µg/mL + TSH (fmol/cell well),[9],398
same,Cyclic AMP produced; 5C9 10 µg/mL + TSH (fmol/cell well),[9],151
same,Cyclic AMP produced; 5C9 100 µg/mL + TSH (fmol/cell well),[9],240
same,Cyclic AMP produced; 5C9 100 µg/mL only (fmol/cell well),[9],334
same,Cyclic AMP produced; 5C9 0.01 µg/mL + TSH (fmol/cell well),[10],17400
same,Cyclic AMP produced; 5C9 0.1 µg/mL + TSH (fmol/cell well),[10],9020
same,Cyclic AMP produced; 5C9 1.0 µg/mL + TSH (fmol/cell well),[10],2240
same,Cyclic AMP produced; 5C9 10 µg/mL + TSH (fmol/cell well),[10],1140
same,Cyclic AMP produced; 5C9 100 µg/mL + TSH (fmol/cell well),[10],603
same,Cyclic AMP produced; 5C9 100 µg/mL only (fmol/cell well),[10],446
same,Mutated/wild type (%); 5C9 0.01 µg/mL + TSH,[10],114%
same,Mutated/wild type (%); 5C9 0.1 µg/mL + TSH,[10],332%
same,Mutated/wild type (%); 5C9 1.0 µg/mL + TSH,[10],562%
same,Mutated/wild type (%); 5C9 10 µg/mL + TSH,[10],754%
same,Mutated/wild type (%); 5C9 100 µg/mL + TSH,[10],251%
same,Mutated/wild type (%); 5C9 100 µg/mL only,[10],134%
same,Cyclic AMP produced; 5C9 0.01 µg/mL + TSH (fmol/cell well),[11],9560
same,Cyclic AMP produced; 5C9 0.1 µg/mL + TSH (fmol/cell well),[11],1320
same,Cyclic AMP produced; 5C9 1.0 µg/mL + TSH (fmol/cell well),[11],177
same,Cyclic AMP produced; 5C9 10 µg/mL + TSH (fmol/cell well),[11],108
same,Cyclic AMP produced; 5C9 100 µg/mL + TSH (fmol/cell well),[11],17
same,Cyclic AMP produced; 5C9 100 µg/mL only (fmol/cell well),[11],34
same,Mutated/wild type (%); 5C9 0.01 µg/mL + TSH,[11],58%
same,Mutated/wild type (%); 5C9 0.1 µg/mL + TSH,[11],26%
same,Mutated/wild type (%); 5C9 1.0 µg/mL + TSH,[11],22%
same,Mutated/wild type (%); 5C9 10 µg/mL + TSH,[11],16%
same,Mutated/wild type (%); 5C9 100 µg/mL + TSH,[11],7%
same,Mutated/wild type (%); 5C9 100 µg/mL only,[11],31%
same,Cyclic AMP produced; 5C9 0.01 µg/mL + TSH (fmol/cell well),[12],15200
same,Cyclic AMP produced; 5C9 0.1 µg/mL + TSH (fmol/cell well),[12],6300
same,Cyclic AMP produced; 5C9 1.0 µg/mL + TSH (fmol/cell well),[12],643
same,Cyclic AMP produced; 5C9 10 µg/mL + TSH (fmol/cell well),[12],286
same,Cyclic AMP produced; 5C9 100 µg/mL + TSH (fmol/cell well),[12],158
same,Cyclic AMP produced; 5C9 100 µg/mL only (fmol/cell well),[12],458
same,Cyclic AMP produced; 5C9 0.01 µg/mL + TSH (fmol/cell well),[13],14500
same,Cyclic AMP produced; 5C9 0.1 µg/mL + TSH (fmol/cell well),[13],8490
same,Cyclic AMP produced; 5C9 1.0 µg/mL + TSH (fmol/cell well),[13],2570
same,Cyclic AMP produced; 5C9 10 µg/mL + TSH (fmol/cell well),[13],862
same,Cyclic AMP produced; 5C9 100 µg/mL + TSH (fmol/cell well),[13],96
same,Cyclic AMP produced; 5C9 100 µg/mL only (fmol/cell well),[13],448
same,Mutated/wild type (%); 5C9 0.01 µg/mL + TSH,[13],95%
same,Mutated/wild type (%); 5C9 0.1 µg/mL + TSH,[13],135%
same,Mutated/wild type (%); 5C9 1.0 µg/mL + TSH,[13],399%
same,Mutated/wild type (%); 5C9 10 µg/mL + TSH,[13],301%
same,Mutated/wild type (%); 5C9 100 µg/mL + TSH,[13],61%
same,Mutated/wild type (%); 5C9 100 µg/mL only,[13],98%
same,Cyclic AMP produced; 5C9 0.01 µg/mL + TSH (fmol/cell well),[14],15400
same,Cyclic AMP produced; 5C9 0.1 µg/mL + TSH (fmol/cell well),[14],4700
same,Cyclic AMP produced; 5C9 1.0 µg/mL + TSH (fmol/cell well),[14],1180
same,Cyclic AMP produced; 5C9 10 µg/mL + TSH (fmol/cell well),[14],984
same,Cyclic AMP produced; 5C9 100 µg/mL + TSH (fmol/cell well),[14],602
same,Cyclic AMP produced; 5C9 100 µg/mL only (fmol/cell well),[14],272
same,Cyclic AMP produced; 5C9 0.01 µg/mL + TSH (fmol/cell well),[15],5960
same,Cyclic AMP produced; 5C9 0.1 µg/mL + TSH (fmol/cell well),[15],278
same,Cyclic AMP produced; 5C9 1.0 µg/mL + TSH (fmol/cell well),[15],360
same,Cyclic AMP produced; 5C9 10 µg/mL + TSH (fmol/cell well),[15],482
same,Cyclic AMP produced; 5C9 100 µg/mL + TSH (fmol/cell well),[15],354
same,Cyclic AMP produced; 5C9 100 µg/mL only (fmol/cell well),[15],280
same,Mutated/wild type (%); 5C9 0.01 µg/mL + TSH,[15],39%
same,Mutated/wild type (%); 5C9 0.1 µg/mL + TSH,[15],6%
same,Mutated/wild type (%); 5C9 1.0 µg/mL + TSH,[15],30%
same,Mutated/wild type (%); 5C9 10 µg/mL + TSH,[15],49%
same,Mutated/wild type (%); 5C9 100 µg/mL + TSH,[15],59%
same,Mutated/wild type (%); 5C9 100 µg/mL only,[15],103%
same,% of labelled protein bound,[16],17%
same,Abs 450 nm,[17],2.42 Abs 450 nm
